# In PMC10302475:
# “And” between values parts separate entries of the source, which are not always exact repeats. Equal entries are not always repeated.
# Biological target: Sox6 HMG domain (human) (UniProt P35712)
# Test: UV laser footprinting
# Conditions: 10 mM Tris pH 7.4, 75 mM NaCl, 1 mM EDTA, 1 mM DTT, BSA (100 mg/mL [sic]), 0.01% NP40, 5% glycerol, 37 C, 50 nM DNA or nucleosome (Kdapp is not true Kd) …
# Sox6 HMG domain (human), sequence (P35712 618-697): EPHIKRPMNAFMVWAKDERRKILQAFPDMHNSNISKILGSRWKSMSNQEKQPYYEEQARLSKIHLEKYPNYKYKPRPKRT
sequence,measurement,setting,value
GCATGATTCTTAAGACCGAGTTCATCCCTTATGTGATGGACCCTATACGCGGCCGCCATCAGAATCCCGGTGCCGAGGCCGCTCAATTGGTCGTAGACAGCTCTAGCACCGCTTAAACGCACGTACGCGCTGTCCCCCGCGTTTTAACCGCCAAGGGGATTACTCCGGACAATGGAGGCACGTGTCAGATATATACATCGATGTGCATGTATTGAACAGCGACCTTGCCGGTGCCAGTCGGATAGAATTCCGGAC (double strand) [601-SHL4 naked DNA],K half,,180 nM
GCATGATTCTTAAGACCGAGTTCATCCCTTATGTGATGGACCCTATACGCGGCCGCCATCAGAATCCCGGTGCCGAGGCCGCTCAATTGGTCGTAGACAGCTCTAGCACCGCTTAAACGCACGTAGGACAATGGAGGCGCGTTTTAACCGCCAAGGGGATTACTCCCTAGTCTCCAGGCACGTGTCAGATATATACATCGATGTGCATGTATTGAACAGCGACCTTGCCGGTGCCAGTCGGATAGAATTCCGGAC (double strand) [601-SHL0 naked DNA],K half,,100 nM
GCATGATTCTTAAGACCGAGTTCATCCCTTATGTGATGGACCCTATACGCGGCCGCCATCAGAATCCCGGTGCCGAGGCCGCTCAATTGGTCGTAGACAGCTCTAGCACCGCTTAAACGCACGTAGGACAATGGAGGCGCGTTTTGGACAATGGAGGCATTACTCCGGACAATGGAGGCACGTGTCAGATATATACATCGATGTGCATGTATTGAACAGCGACCTTGCCGGTGCCAGTCGGATAGAATTCCGGAC (double strand) [601-SHL024 naked DNA],K half,,198 nM and 275 nM and 245 nM
GCATGATTCTTAAGACCGAGTTCATCCCTTATGTGATGGACCCTATACGCGGCCGCCATCAGAATCCCGGTGCCGAGGCCGCTCAATTGGTCGTAGACAGCTCTAGCACCGCTTAAACGCACGTACGCGCTGTCCCCCGCGTTTTGGACAATGGAGGCATTACTCCCTAGTCTCCAGGCACGTGTCAGATATATACATCGATGTGCATGTATTGAACAGCGACCTTGCCGGTGCCAGTCGGATAGAATTCCGGAC (double strand) [601-SHL2 nucleosome],K half,"apparent Kd, SHL2 site",374 nM
GCATGATTCTTAAGACCGAGTTCATCCCTTATGTGATGGACCCTATACGCGGCCGCCATCAGAATCCCGGTGCCGAGGCCGCTCAATTGGTCGTAGACAGCTCTAGCACCGCTTAAACGCACGTACGCGCTGTCCCCCGCGTTTTAACCGCCAAGGGGATTACTCCGGACAATGGAGGCACGTGTCAGATATATACATCGATGTGCATGTATTGAACAGCGACCTTGCCGGTGCCAGTCGGATAGAATTCCGGAC (double strand) [601-SHL4 nucleosome],K half,"apparent Kd, SHL4 site",490 nM
GCATGATTCTTAAGACCGAGTTCATCCCTTATGTGATGGACCCTATACGCGGCCGCCATCAGAATCCCGGTGCCGAGGCCGCTCAATTGGTCGTAGACAGCTCTAGCACCGCTTAAACGCACGTACGCGCTGTCCCCCGCGTTTTGGACAATGGAGGCATTACTCCCTAGTCTCCAGGCACGTGTCAGATATATACATCGATGTGCATGTATTGAACAGCGACCTTGCCGGTGCCAGTCGGATAGAATTCCGGAC (double strand) [601-SHL2 naked DNA],K half,,136 nM
GCATGATTCTTAAGACCGAGTTCATCCCTTATGTGATGGACCCTATACGCGGCCGCCATCAGAATCCCGGTGCCGAGGCCGCTCAATTGGTCGTAGACAGCTCTAGCACCGCTTAAACGCACGTAGGACAATGGAGGCGCGTTTTGGACAATGGAGGCATTACTCCGGACAATGGAGGCACGTGTCAGATATATACATCGATGTGCATGTATTGAACAGCGACCTTGCCGGTGCCAGTCGGATAGAATTCCGGAC (double strand) [601-SHL024 nucleosome],K half,"apparent Kd, SHL2 site of 3x",550 nM
same,K half,"apparent Kd, SHL4 site of 3x",680 nM
